Source: patent US20250271449A1

Assays:
[1] = molecular target: mitochondrial transcription factor B2 (TFB2M) protein (human) (UniProt Q9H5Q4); assay: in situ proximity ligation assay (anti-TFAM sc-376672 and anti-TFB2M 13676), fixed PBMCs from septic patients (n=10), mean
[2] = molecular target: mitochondrial transcription factor B2 (TFB2M) protein (human) (UniProt Q9H5Q4); assay: in situ proximity ligation assay (anti-TFAM sc-376672 and anti-TFB2M 13676), fixed PBMCs from healthy controls (n=20), mean

UniProt Q9H5Q4, sequence (Q9H5Q4 44-396): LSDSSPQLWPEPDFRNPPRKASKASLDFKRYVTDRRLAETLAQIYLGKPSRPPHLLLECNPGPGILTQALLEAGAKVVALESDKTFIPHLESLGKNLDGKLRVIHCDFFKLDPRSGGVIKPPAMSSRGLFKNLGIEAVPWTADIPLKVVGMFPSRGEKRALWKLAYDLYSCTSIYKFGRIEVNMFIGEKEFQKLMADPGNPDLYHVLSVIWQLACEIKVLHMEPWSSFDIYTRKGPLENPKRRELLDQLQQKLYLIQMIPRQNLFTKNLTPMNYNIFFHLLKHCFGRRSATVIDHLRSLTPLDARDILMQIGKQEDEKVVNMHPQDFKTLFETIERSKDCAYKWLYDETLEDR

mature mitochondrial transcription factor A (TFAM) protein (from UniProt Q00059 43-246)
PLA signals per cell (signals per cell) [1]: 1.2
PLA signals per cell (signals per cell) [2]: 4.5
